Source: patent US20160130351A1 (NOVIMMUNE S A, published 2016)
Residue numbers refer to the chain shown, from its start.

Columns and labels:
Assay in all cases: flow cytometry on PEAK cells displaying the mutated mouse IL-6R, goat anti-human IgG Alexa Fluor 647
[1] = biological target: T1, MUTANT 4 (mouse, UniProt P22272)
T1 construct: also called mouse IL-6R with human residues in D3, mutant 4
T1 sequence (receptor chain, looked up): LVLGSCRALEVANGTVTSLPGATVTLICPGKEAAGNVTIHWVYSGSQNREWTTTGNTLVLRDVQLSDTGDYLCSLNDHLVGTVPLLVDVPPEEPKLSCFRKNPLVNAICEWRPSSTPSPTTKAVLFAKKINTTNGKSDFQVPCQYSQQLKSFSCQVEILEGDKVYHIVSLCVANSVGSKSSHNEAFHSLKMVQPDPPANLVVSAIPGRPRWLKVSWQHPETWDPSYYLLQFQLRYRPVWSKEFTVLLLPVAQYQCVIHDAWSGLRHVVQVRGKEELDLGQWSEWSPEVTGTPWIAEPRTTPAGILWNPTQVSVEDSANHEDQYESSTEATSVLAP
Excerpt: (§1) An overlap extension PCR strategy was used to generate coding sequences specifying huIL-6R/mouseIL-6R chimeric proteins (FIG. 6A) and mouse IL-6R proteins containing human amino acid substitutions in D3 domains (FIG. 6B). Partially overlapping mutagenic oligonucleotide primers were used for PCR amplification of N- and C-terminal sequences on either side of huIL-6R/mouse IL-6R junctions or substituted regions, followed by gel isolation and annealing of the denatured PCR products. Full length PCR products were then digested by EcoRI and BglII and ligated into a pDISPLAY™ vector (Invitrogen). PEAK cells were grown in DMEM medium supplemented with 10% fetal calf serum and 4 mM L-glutamine. Cells were plated 12 to 24 h before transfection to have 40-50% confluency in 6 well plates. Transfections of pDISPLAY™ vectors (Invitrogen) were carried out by lipofection using TransIT® LT1 reagent (MirusBio) according manufacturer's specifications. Cells were grown for 48 h before harvesting and analysis by flow cytometry.
(§2) Cell surface staining was performed on PEAK cells displaying each variant of IL-6R and analyzed by flow cytometry (FIG. 6B-D). Cell surface expression of each chimeric IL-6R was assessed using an anti-human-CD126 PE or an anti-mouse CD126-PE antibody (BD Pharmingen).

[2] = biological target: T2, MUTANT 3 (mouse, UniProt P22272)
T2 construct: also called mouse IL-6R with human residues in D3, mutant 3
T2 sequence (receptor chain, looked up): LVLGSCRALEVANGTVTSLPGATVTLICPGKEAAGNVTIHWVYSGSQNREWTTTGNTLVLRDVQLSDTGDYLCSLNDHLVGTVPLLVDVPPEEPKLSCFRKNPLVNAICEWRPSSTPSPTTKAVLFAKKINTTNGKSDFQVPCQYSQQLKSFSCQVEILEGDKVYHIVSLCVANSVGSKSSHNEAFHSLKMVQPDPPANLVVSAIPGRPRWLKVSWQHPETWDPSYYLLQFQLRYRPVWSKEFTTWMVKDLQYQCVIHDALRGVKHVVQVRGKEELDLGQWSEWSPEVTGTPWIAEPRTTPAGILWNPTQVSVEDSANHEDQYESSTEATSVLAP
Excerpt: as §1, §2

[3] = biological target: T3, MUTANT 2 (mouse, UniProt P22272)
T3 construct: also called mouse IL-6R with human residues in D3, mutant 2
T3 sequence (receptor chain, looked up): T1 sequence (receptor chain, looked up) with P237A, V238E, W239R, E242T, W261L, S262R, L264V, R265K
Excerpt: as §1, §2

[4] = biological target: T4, MUTANT 5 (mouse, UniProt P22272)
T4 construct: also called mouse IL-6R with human residues in D3, mutant 5
T4 sequence (receptor chain, looked up): T1 sequence (receptor chain, looked up) with W261L, S262R, L264V, R265K, L276F, D277G, L278Q, Q280E
Excerpt: as §1, §2

[5] = biological target: T5, MUTANT 1 (mouse, UniProt P22272)
T5 construct: also called mouse IL-6R with human residues in D3, mutant 1
T5 sequence (receptor chain, looked up): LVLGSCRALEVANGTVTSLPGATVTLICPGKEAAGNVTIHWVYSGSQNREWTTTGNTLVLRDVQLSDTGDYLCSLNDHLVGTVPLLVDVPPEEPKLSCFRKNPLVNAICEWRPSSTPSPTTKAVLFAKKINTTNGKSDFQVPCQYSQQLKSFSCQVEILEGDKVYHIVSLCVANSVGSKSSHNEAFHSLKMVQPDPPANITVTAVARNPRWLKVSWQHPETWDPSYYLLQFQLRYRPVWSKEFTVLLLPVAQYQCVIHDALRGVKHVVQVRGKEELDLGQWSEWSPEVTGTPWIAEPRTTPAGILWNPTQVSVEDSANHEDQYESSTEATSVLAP
Excerpt: as §1, §2

- binding result [1]: no binding
- binding result [2]: no binding
- binding result [3]: binds
- binding result [4]: no binding
- binding result [5]: no binding
B1: NI-1201 wild type (NI-1201-WT) antibody (antibody, V domains shown)
VH: QVQLVQSGAEVKKPGSSVKVSCKASGGTFSSYAISWVRQAPGQGLEWMGGIIPLFDTTKYAQQFQGRVTITADESTSTAYMELSSLRSEDTAVFYCARDRDILTDYYPMGGMDVWGQGTTVTVSS
VL: AIQLTQSPSSLSASVGDRVTITCRASQGISSVLAWYQQKPGKAPKLLIYDASSLESGVPSRFSGSGSGTDFTLTISSLQPEDFATYYCQQSNSYPLTFGGGTKVEIKR
notes: Fully human monoclonal IgG (captured by anti-human IgG Fc in Biacore); also called 39B9 VL1
